In PMC3229523, “Identification of Lactoferricin B Intracellular Targets Using an Escherichia coli Proteome Chip” (PLoS ONE, 2011):
Ends that are not written are not given here. * marks the point of attachment. Biotin = O=C1N[C@H]2[C@H](CS[C@H]2CCCCC(=O)*)N1

What was measured:
Assay in all cases: peptide or protein array; E. coli proteome chip: purified His-tagged proteins printed in duplicate on Fullmoon slides, blocked with 1% BSA; 10 nM N-terminal biotinylated LfcinB with 1% BSA, room temperature, 1 h; detected with DyLight 649-labeled streptavidin, ratio to DyLight 549-labeled anti-His antibody; ProCAT normalisation, local cut-off; triplicate chips
Settings in all cases: both partners purified
[1] = biological target: T1, YibB (E. coli K-12, UniProt P25666 1-285)
T1 construct: YibB, E. coli K-12
T1 sequence (looked up): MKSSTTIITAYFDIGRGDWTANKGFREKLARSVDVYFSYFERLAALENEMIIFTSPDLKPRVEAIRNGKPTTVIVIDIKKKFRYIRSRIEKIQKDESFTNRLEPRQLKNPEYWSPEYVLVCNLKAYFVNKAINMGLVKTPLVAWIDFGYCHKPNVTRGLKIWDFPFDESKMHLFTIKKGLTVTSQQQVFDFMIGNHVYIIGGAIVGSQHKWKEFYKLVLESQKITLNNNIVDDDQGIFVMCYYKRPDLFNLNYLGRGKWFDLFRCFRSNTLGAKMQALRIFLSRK

[2] = biological target: T2, AtpH (E. coli K-12, UniProt P0ABA4 1-177)
T2 construct: AtpH, E. coli K-12
T2 sequence (P0ABA4 whole entry): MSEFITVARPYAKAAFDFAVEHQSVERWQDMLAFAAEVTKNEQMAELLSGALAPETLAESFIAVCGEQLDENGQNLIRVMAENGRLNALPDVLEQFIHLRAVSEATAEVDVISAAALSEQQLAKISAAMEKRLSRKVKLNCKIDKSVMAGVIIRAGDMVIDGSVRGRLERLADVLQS

[3] = biological target: T3, YrfI (E. coli K-12, UniProt P0A6Y5 1-292)
T3 construct: YrfI, E. coli K-12
T3 sequence (looked up): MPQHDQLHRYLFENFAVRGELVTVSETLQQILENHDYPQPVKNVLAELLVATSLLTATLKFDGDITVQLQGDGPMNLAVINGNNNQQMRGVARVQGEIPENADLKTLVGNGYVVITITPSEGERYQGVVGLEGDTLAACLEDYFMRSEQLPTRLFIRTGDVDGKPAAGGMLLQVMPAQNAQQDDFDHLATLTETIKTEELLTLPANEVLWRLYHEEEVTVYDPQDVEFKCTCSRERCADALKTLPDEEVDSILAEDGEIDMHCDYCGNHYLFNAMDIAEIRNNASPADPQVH

[4] = biological target: T4, YfiQ (E. coli K-12, UniProt P76594 1-886)
T4 construct: YfiQ, E. coli K-12
T4 sequence (looked up): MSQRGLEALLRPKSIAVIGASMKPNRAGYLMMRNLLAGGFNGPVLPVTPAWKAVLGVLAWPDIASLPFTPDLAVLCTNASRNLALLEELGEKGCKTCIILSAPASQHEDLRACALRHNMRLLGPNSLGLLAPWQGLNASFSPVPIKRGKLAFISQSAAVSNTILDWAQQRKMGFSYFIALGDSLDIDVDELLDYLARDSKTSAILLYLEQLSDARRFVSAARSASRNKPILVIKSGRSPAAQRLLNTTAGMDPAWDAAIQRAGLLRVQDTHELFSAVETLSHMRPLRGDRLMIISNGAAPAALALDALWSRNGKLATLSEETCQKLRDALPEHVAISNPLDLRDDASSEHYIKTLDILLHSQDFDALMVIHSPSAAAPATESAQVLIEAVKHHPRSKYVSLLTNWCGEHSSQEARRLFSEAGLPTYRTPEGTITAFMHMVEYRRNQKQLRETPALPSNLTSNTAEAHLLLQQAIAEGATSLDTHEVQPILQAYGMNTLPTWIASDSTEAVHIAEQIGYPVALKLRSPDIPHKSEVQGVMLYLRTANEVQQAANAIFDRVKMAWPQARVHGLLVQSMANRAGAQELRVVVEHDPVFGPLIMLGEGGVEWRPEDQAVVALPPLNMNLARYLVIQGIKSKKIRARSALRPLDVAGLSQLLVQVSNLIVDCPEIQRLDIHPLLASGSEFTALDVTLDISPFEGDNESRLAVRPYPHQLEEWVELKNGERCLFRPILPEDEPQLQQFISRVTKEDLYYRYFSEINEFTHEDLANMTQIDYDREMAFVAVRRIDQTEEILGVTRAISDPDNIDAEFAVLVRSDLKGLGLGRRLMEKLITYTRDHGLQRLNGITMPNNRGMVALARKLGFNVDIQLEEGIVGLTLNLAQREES

[5] = biological target: T5, YdiT (E. coli K-12, UniProt P77714 1-97)
T5 construct: YdiT, E. coli K-12
T5 sequence (looked up): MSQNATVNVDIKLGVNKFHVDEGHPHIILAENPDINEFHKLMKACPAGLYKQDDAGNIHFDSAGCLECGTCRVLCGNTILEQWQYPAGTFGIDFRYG

[6] = biological target: T6, YjbM (E. coli K-12, UniProt P32694 1-235)
T6 construct: YjbM, E. coli K-12
T6 sequence (looked up): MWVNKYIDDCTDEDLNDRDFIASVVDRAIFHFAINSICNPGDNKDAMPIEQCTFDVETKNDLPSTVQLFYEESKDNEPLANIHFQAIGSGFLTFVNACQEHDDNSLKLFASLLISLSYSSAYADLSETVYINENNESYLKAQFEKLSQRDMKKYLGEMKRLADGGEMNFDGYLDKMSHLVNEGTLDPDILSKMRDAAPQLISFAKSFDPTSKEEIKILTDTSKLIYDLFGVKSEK

Measured: binding result

B1: N-terminal biotinylated Lactoferricin B (peptide, UniProt P24627 36-60, looked up)
peptide: Biotin-FKCRRWQWRMKKLGAPSITCVRRAF
modifications: ends and bridges not checked
notes: lactoferricin B (LfcinB), cationic antimicrobial peptide of 25 amino acids; also called biotinylated LfcinB; biotin-labeled LfcinB; source: bought: Kelowna Inc
binds: all assays above
